Measurements taken from paper PMC12095048.

Target: USP7 (UniProt Q93009)
Test: co-IP of Flag-HIF-1α, USP7 blot
Conditions: reference: wild type Flag-HIF-1α; sites T645

- binding against the reference: weaker
Substance: HIF-1α (from UniProt Q16665) Flag-HIF-1α T645A
